Our source for the Kd values is US20220332804A1 (CSL INNOVATION, published 2022).

Assay in all cases: SPR, mAb captured, C2 mutant analyte;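 note: Anti-C2 mAbs captured on goat anti-human IgG Biacore CM5 chips, alanine or serine C2 surface mutants flowed over at 37 °C, double-referenced sensorgrams fitted to a 1:1 binding model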
For orientation: Surface plasmon resonance follows binding to a sensor surface in real time, without labels.

For experiment [1], the target named is T1, human C2 D269A (human, UniProt P06681 21-752).
T1 sequence: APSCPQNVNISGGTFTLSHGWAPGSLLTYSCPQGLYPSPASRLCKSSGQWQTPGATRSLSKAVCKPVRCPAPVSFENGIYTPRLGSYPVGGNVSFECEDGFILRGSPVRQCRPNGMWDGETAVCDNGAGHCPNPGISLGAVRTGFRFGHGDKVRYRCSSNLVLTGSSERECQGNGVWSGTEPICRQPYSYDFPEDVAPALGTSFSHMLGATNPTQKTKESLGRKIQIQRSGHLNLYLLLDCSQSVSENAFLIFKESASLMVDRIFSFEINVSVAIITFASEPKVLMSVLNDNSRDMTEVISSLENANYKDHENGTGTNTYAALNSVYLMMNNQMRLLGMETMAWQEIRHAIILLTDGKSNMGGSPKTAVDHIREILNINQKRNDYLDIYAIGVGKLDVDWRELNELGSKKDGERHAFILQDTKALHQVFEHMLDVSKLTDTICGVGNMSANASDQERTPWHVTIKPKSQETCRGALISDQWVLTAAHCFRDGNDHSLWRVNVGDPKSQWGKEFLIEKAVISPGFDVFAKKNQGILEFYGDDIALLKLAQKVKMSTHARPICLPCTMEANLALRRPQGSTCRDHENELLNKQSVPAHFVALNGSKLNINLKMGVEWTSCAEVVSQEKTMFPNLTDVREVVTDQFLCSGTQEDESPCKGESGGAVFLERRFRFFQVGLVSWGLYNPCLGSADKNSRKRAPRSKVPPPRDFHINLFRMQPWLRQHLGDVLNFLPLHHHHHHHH

Experiment [2] concerns the target T2, human C2 F437A (human, UniProt P06681 21-752).
T2 sequence: T1 sequence with A249D, F417A

In experiment [3] the target is T3, human C2 F689A (human, UniProt P06681 21-752).
T3 sequence: T1 sequence with A249D, F669A

Experiment [4] deals with T4, human C2 D441A (human, UniProt P06681 21-752).
T4 sequence: T1 sequence with A249D, D421A

Changes are numbered by the printed parent chain.

B1: RF16-214 (antibody, V domains shown)
VH: EVQLLESGGGLVQPGGSLRLSCAASGFTFSWYQMMWVRQAPGKGLEWVSRIYPSGGGTAYADSVKGRFTISRDNSKNTLYLQMNSLRAEDTAVYYCARDAGYGDNWGQGTLVTVSS
VL: QSALTQPPSVSVSPGQTASITCSGDKLGEKYASWYQQKAGQSPVMVIYQDRKRPSGIPERFSGSNSGNTATLTISGTQAMDEADYYCQAWDTRAVVFGGGTKLTVLG
Regarding B1, the Kd in experiment [1] amounted to 17.2 nM; in experiment [2] it was 381 nM; in experiment [3], 36.5 nM; in experiment [4], 51.5 nM.

As usually defined, the Kd is the free concentration of one partner at which half of the binding sites on the other are occupied at equilibrium, for simple one-to-one binding.
